# Source: patent publication US20130149306A1, “Antagonists of Sema3E/PlexinD1 interaction as anti-cancer agents” (NETRIS PHARMA, priority 2010, published 2013)
# Read-outs that look alike come from different tables or passages of the source.
# T1: Sema3E (Mus musculus, UniProt P70275)
# T1 construct: expressed in transfected cells; host or cells: HEK293T
# T1 sequence (P70275 26-775): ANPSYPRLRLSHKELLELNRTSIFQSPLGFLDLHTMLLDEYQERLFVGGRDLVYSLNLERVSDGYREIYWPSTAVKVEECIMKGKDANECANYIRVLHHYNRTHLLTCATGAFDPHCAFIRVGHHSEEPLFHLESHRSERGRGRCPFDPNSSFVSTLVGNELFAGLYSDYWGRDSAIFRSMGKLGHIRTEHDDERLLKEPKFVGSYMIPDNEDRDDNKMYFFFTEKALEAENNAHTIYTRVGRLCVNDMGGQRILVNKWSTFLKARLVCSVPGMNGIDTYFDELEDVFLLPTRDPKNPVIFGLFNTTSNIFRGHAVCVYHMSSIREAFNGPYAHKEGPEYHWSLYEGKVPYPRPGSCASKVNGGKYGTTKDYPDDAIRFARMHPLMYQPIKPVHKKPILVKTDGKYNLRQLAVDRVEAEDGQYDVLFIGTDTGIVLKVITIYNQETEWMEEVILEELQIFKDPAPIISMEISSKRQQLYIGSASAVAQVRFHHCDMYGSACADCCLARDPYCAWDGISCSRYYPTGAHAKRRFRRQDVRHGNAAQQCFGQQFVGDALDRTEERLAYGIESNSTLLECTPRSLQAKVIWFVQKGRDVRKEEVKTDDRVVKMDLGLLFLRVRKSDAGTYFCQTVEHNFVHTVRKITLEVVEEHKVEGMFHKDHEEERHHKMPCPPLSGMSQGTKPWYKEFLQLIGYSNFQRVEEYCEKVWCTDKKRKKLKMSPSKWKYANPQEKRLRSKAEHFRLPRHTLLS
# B1: SD1: Ig k-chain secretion signal peptide, sema domain of mouse PlexinD1 protein (aa 61 to 531), fused with six myc epitope tags (protein)
# chain: TNNFALDGTAGTVYLAAVNRLYQLSSANLSLEAEATVGPVPDSPLCHAPQLPQASCEHPRRLTDNYNKILQLDPGQGLVVACGSIYQGLCQLRRRGNISALAVSFPPAAPTAEPVTVFPSMLNVAANHPNASTVGLVLPPTSGTGGSRLLVGATYTGFGSAFFPRNRSLEDHRFENTPEIAIRSLDARGDLAKLFTFDLNPSDDNILKIKQGAKEQHKLGFVRAFLHPAVPPHSAQPYAYLALNSEARAGDKDSQARSLLARICLPRGAGGDAKKLTESYIQLGLQCAGGAGRGDLYSRLVSVFPAREQFFAVFERPQGAPGARNAPAALCAFRFDDVQAAIRAARTACFVEPAPDVVAVLDSVVQGTGPACESKRNIQLQPEQLDCGAAHLQHPLTILQPLRASPVFRAPGLTAVAVASANNYTAVFLGTATGRLLKISLNESMQVVSRRVLTVAYGEPVHHVMQFDPMD
# modifications: left off: small tags and cut ends
# How the values were obtained:
# Sema3E = target: T1, Sema3E; assay: Co-precipitation in transfected HEK293T cells (His-tagged Sema3E, Nickel resin); format: binding; conditions: myc-tagged SD1, AP-His-tagged Sema3E
# Excerpt: (A) SD1 is composed of the immunoglobulin (Ig) k-chain secretion signal peptide, followed by the sema domain of mouse PlexinD1 protein (aa 61 to 531) fused in frame with six myc epitope tags (a.a: amino acid). (B) Co-precipitation experiments on HEK 293T cells transfected with the indicated combinations of myc-tagged SD1, Alkaline phosphatase(AP)-Histidine(His)-tagged Sema3E. SD1 can form a complex with Sema3E protein when His-tagged Sema3E is precipitated with a Nickel resin. (C) Displacement curve of Sema3E binding to PlexinD1-expressing HEK 293T cells by increasing concentrations of SD1 (from 1-12 nM). […] (D-G) Quantification of cell death induction by SD1 in cultures of 4T1 (D-E), MDA-MB-231 (F-G) and MCF-7 (F-G) cells measured by trypan blue exclusion (D and F) or by quantification of the percentage of cleaved Caspase-3 positive cells (E and G) in the absence or presence of exogenous Sema3E (100 ng/ml). SD1 is added as conditioned medium from transfected HEK 293T cells at increasing concentration (0 to 20 nM) (D) or fixed concentration (20 nM) (E-G).
# HEK293T cells were transfected with AP-Sema3E-his and/or equal amounts of SD1 vectors. […] After incubation with HRP conjugated secondary antibodies, signals were detected with enhanced chemoluminescence system (GE Healthcare, RPN2132). […]
# PlexinD1 = PlexinD1 (Homo sapiens, UniProt Q9Y4D7); assay: Co-precipitation in transfected HEK293T cells; format: binding; conditions: data not shown
# Description: We first set up co-precipitation experiments in transfected HEK293T cells to investigate whether the SD1 interacted with Sema3E ligand. […] Next, we examined the displacement of Sema3E binding to Hek293T cells expressing PlexinD1 by different concentrations of SD1 (from 1-12 nM) present in conditioned medium of HEK293T cells transfected with the SD1 plasmid.
# Neuropilin-1 = target: T2, Neuropilin-1 (Homo sapiens, UniProt O14786); assay: Co-precipitation in transfected HEK293T cells; format: binding; conditions: data not shown
# T2 construct: expressed in transfected cells; host or cells: HEK293T
# VEGFR2 = target: T3, VEGFR2 (Homo sapiens, UniProt P35968); assay: Co-precipitation in transfected HEK293T cells; format: binding; conditions: data not shown
# T3 construct: expressed in transfected cells; host or cells: HEK293T
# 4T1 cells [1] = assay: Cell death/viability in cultures of 4T1 cells; format: cell-based, mouse
# Description: (§1) Cell death/viability was determined by trypan blue dye exclusion, MTT cell viability assay, calcein assay, and anti-active caspase-3 immunoreactivity. In some experiments, cells were seeded in multiple 24-well plates (5×10^4 cells/well) for 24 h then transfected with different vectors using Lipofectamine Plus (Invitrogen): The different analysis occurred after 48 h (HEK-293T cells) or 72 h (4T1 cells) of serum starvation. In some experiments, cells were cultured in the presence of 10 μM caspase inhibitors: caspase-3 inhibitor II (Z-DEVD-FMK, 264155, VWR), caspase-8 inhibitor II (Z-IETD-FMK, 218759, VWR), and caspase-9 inhibitor II ([…], 218776, VWR).
# (§2) For trypan blue exclusion experiments, total cells (adherent and floating) were collected by mechanical detachment and medium collection. Cells were pelleted by slow centrifugation and resuspended in serum-free medium. Trypan blue (0.4%) was added in a ratio of 1:1 to the cell suspension, and the percentage of cell death was measured in a hemacytometer by counting, in a blinded fashion and within a given volume, the number of blue (dead) cells and comparing this number to the total number of cells in this same volume.
# For caspase staining, after immunostaining with anti-active caspase-3 antibody, the percentage of labelled cells was estimated by comparing the number of active caspase-3-stained cells with the total number of cells present on a given surface.
# For assessing cell viability using calcein, cells were plated in OptiMEM medium in 96-well black plates (Greiner Bio-one, Courtaboeuf, France). After 3-6 days in culture, live cells were stained with 0.5 μg/ml green calcein-acetoxymethyl ester (Molecular Probes, Eugene, Oreg.) for 40 minutes at 37° C., and counted using a flash cytometer (Trophos, Marseille, France).
# We next used an in vitro assay to evaluate whether SD1 is directly capable of triggering death of tumor cells. […] Similarly, 4T1-SD1 cells, which proliferate at the same rate as 4T1-mock cells during the first 24-48 h in culture, show increased death 72 h after plating, possibly as a result of SD1 accumulation in the culture medium (FIG. 14). […] Thus, SD1 triggers cancer cell death in a PlexinD1 dependent manner.
# MDA-MB-231 cells = assay: Cell death/viability in cultures of MDA-MB-231 cells; format: cell-based, human
# Description: as §1, §2
# (§3) For assessing cell viability using calcein, cells were plated in OptiMEM medium in 96-well black plates (Greiner Bio-one, Courtaboeuf, France). […]
# MCF-7 cells = assay: Cell death/viability in cultures of MCF-7 cells; format: cell-based, human
# Description: as §1, §2, §3
# 4T1 cells [2] = conditions: for Reduction in the volume of the tumor: 4T1-SD1 vs 4T1-mock
# Description: In vivo studies were conducted in 6-8 weeks old BALB/c ByJ female mice (Charles River Laboratories France). 4.5×10^5 4T1-mock or 4T1-SD1 cells were injected into the right posterior flank or into the mammary fad pad of anaesthetized animals. Tumor size was measured externally every two days using a calliper, and the width (A) and length (B) of the developing tumor was converted to volume using the equation V=0.52×A^2×B. Mice were sacrificed 27 days after injection or when the tumor volume was equal to 300 mm^3.
# We next evaluated the effect of SD1 on tumor development and metastasic behavior in a syngenic breast cancer model in Balb/c mice, from which 4T1 cells were derived. In a first series of experiments, 4T1-SD1 or 4T1-mock cells were injected either subcutaneously or in their normal anatomical site, the mammary fat pad. The primary tumors formed from the injected cells were collected after 27 days.
# [3] = 15 nM SD1 in conditioned medium, three days
# T2 sequence (O14786 22-923, species assumed): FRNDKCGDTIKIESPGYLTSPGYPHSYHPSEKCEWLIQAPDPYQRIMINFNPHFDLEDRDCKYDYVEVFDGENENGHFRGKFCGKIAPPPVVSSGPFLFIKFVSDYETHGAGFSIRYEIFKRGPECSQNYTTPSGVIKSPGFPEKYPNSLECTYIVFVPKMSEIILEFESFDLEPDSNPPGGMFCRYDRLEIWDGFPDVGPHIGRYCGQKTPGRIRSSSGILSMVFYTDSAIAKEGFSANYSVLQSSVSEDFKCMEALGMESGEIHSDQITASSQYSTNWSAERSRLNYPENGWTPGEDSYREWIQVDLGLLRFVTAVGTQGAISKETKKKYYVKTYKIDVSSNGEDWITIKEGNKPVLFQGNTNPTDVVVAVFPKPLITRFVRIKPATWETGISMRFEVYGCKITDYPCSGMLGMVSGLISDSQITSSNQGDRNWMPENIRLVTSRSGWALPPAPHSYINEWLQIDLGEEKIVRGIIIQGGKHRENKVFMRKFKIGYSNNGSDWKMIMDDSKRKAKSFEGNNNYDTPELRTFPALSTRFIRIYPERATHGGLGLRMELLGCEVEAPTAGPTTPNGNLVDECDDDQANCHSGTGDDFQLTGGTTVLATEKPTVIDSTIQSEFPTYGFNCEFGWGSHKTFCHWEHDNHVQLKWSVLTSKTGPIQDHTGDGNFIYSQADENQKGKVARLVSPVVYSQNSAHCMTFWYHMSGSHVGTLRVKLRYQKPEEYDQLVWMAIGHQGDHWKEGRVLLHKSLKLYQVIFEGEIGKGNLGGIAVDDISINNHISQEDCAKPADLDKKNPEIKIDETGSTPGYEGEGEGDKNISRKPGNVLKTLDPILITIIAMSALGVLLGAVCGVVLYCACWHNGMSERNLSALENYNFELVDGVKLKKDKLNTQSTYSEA
# PlexinD1, sequence (Q9Y4D7 47-1925, species assumed): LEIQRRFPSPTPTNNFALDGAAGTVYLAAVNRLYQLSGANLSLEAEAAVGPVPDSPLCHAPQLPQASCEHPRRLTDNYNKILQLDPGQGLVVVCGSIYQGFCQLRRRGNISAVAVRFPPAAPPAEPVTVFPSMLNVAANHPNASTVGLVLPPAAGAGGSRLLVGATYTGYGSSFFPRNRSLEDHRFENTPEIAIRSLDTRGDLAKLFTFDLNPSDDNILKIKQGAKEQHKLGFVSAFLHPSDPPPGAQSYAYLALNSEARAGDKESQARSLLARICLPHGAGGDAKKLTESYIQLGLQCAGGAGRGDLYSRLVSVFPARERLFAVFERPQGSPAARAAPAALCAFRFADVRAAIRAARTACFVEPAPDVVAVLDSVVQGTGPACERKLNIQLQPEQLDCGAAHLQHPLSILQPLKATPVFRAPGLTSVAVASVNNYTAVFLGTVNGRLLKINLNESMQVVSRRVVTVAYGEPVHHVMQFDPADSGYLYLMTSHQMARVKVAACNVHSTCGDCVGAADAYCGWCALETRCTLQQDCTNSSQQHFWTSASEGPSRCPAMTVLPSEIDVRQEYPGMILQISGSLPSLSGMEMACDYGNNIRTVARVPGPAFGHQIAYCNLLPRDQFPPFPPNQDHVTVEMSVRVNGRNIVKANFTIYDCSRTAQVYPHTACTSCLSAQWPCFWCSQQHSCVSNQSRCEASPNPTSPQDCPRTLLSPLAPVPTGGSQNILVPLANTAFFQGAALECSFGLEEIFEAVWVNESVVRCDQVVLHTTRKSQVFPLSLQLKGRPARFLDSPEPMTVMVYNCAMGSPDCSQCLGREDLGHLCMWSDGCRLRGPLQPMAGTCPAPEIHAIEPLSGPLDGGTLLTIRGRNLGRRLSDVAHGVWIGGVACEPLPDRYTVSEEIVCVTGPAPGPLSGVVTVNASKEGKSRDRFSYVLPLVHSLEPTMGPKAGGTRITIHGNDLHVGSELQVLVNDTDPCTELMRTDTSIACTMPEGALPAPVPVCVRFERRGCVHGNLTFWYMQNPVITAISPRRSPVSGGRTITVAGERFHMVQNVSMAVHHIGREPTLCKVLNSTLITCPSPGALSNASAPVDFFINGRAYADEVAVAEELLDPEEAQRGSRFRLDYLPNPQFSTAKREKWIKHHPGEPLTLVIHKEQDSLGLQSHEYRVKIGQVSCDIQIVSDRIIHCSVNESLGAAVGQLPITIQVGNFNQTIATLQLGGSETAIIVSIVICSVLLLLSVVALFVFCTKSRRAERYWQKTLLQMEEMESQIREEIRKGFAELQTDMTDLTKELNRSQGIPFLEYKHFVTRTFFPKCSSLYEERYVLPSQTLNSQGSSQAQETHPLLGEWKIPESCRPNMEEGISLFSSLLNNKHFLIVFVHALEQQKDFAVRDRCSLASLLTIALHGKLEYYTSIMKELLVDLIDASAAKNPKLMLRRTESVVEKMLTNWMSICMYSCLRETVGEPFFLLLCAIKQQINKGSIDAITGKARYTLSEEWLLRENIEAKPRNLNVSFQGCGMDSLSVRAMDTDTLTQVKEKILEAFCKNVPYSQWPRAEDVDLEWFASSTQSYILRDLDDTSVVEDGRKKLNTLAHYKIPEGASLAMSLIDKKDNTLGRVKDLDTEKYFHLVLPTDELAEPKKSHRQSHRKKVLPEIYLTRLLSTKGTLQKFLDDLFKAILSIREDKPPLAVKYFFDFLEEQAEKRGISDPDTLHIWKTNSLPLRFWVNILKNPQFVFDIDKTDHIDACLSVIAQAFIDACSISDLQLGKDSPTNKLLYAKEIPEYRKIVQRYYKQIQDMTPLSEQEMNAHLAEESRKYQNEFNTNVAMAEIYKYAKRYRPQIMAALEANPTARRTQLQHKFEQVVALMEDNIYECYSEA
# T3 sequence (P35968 20-1356, species assumed): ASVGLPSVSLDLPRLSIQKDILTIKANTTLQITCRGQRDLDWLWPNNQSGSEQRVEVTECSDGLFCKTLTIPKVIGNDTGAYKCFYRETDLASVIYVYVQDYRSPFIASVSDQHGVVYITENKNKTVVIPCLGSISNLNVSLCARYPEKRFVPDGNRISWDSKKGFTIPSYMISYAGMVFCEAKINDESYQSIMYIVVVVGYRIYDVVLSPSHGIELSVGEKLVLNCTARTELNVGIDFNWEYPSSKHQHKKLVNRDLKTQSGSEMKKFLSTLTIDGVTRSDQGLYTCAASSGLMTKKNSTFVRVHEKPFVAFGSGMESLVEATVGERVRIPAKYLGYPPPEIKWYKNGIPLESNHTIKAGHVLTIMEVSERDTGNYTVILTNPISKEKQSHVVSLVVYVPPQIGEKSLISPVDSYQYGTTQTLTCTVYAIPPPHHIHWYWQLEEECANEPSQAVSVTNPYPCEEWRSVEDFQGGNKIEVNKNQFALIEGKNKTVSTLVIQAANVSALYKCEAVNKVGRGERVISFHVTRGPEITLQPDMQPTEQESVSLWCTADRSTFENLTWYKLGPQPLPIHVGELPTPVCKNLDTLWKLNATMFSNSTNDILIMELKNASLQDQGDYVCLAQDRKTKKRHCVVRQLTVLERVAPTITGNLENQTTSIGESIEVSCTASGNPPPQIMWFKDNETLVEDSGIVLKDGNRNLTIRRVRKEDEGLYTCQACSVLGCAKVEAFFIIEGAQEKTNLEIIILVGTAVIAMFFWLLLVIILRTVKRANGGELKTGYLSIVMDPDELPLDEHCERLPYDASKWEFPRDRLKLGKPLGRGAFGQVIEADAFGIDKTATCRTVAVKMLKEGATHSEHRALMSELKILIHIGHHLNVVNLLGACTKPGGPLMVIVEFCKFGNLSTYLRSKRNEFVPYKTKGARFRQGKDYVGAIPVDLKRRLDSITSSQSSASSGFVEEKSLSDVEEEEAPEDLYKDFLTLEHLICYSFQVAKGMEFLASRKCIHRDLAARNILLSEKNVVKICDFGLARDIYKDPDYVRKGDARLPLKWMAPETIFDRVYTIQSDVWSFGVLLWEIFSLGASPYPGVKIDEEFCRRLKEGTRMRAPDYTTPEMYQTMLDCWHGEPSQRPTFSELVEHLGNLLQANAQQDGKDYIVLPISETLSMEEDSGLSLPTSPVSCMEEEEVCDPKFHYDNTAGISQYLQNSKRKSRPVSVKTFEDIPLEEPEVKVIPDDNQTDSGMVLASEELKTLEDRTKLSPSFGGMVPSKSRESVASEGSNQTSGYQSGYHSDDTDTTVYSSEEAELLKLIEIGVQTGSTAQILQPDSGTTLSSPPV
molecule,measurement,setting,value
B1,Interaction with Sema3E ligand (co-precipitation),Sema3E,physically associated with Sema3E
same,Direct interaction with PlexinD1,PlexinD1,did not directly interact
same,Direct interaction with Neuropilin-1,Neuropilin-1,did not directly interact
same,Direct interaction with VEGFR2,VEGFR2,did not directly interact
same,"Cell death (trypan blue exclusion, cleaved Caspase-3 positive cells)","4T1 cells [1]; SD1 conditioned medium, 0 to 20 nM or 20 nM",induces cell death
same,"Viability, calcein assay",4T1 cells [1]; SD1 purified from conditioned medium,decreased viability
same,"Cell death, trypan blue-exclusion",4T1 cells [1]; recombinant SD1 in conditioned medium,induces cell death
same,"Cell survival, calcein assay",MDA-MB-231 cells; [3],reduction in cell survival
same,"Cell death (trypan blue exclusion, cleaved Caspase-3 positive cells)",MDA-MB-231 cells; SD1 conditioned medium 20 nM,induces cell death
same,"Cell survival, calcein assay",MCF-7 cells; [3],reduction in cell survival
same,"Cell death (trypan blue exclusion, cleaved Caspase-3 positive cells)",MCF-7 cells; SD1 conditioned medium 20 nM,induces cell death
same,Time until tumors reached an average volume of 300 mm^3,"4T1 cells [2]; 4T1-SD1, fat pad (4T1-mock: 31±3 dpi)",50±6 dpi
same,Time until tumors reached an average volume of 300 mm^3,"4T1 cells [2]; 4T1-SD1, subcutaneous (4T1-mock: 46±4 dpi)",60±3 dpi
same,Tumor cell proliferation (Ki67 immunostaining),4T1 cells [2]; 4T1-SD1 vs 4T1-mock tumors,unchanged
same,Number of metastatic nodules at the surface of the lungs,"4T1 cells [2]; 27 days, subcutaneous and fat pad transplantations, vs control cells",decrease
same,SD1-induced death of stromal cells in tumors,4T1 cells [2]; cleaved Caspase-3/-9 immunostaining,not susceptible
same,Decreased total tumor weight,"4T1 cells [2]; fat pad injections, 27 days",56%
same,Reduction in the volume of the tumor,"4T1 cells [2]; mammary fat pad injection, 27 days",56%
same,Reduction in the volume of the tumor,"4T1 cells [2]; subcutaneous injection, 27 days",60%
same,Decreased total tumor weight,"4T1 cells [2]; subcutaneous injections, 27 days",60%
same,Concentration of blood vessels in primary tumors (PECAM-1),"4T1 cells [2]; subcutaneous, 4T1-SD1 vs control tumors",did not significantly affect
same,Increase in tumor cell death (cleaved Caspase-3 or Caspase-9 positive 4T1 cells) in primary tumors,"4T1 cells [2]; subcutaneous, 27 days, 4T1-SD1 vs control cells",~3 fold
same,Average number of metastatic nodules per lung,"4T1 cells [2]; tumors of similar size (300 mm^3), subcutaneous and fat pad",reduction
